T1: human IL2Rβ (human, UniProt P14784 27-239)
T1 construct: also called IL2β; CD122
T1 sequence (looked up): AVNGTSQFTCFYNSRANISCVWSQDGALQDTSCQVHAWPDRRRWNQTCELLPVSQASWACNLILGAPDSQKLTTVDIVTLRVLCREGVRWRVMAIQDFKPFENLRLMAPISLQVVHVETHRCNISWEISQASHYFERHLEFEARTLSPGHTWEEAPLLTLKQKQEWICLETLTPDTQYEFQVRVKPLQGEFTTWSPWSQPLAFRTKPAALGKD

T2: human IL2Rα Fc fusion protein (human, UniProt P01589 22-213, limits assumed)
T2 construct: also called Recombinant Fc-tagged human IL2Rα; not shown: Fc
T2 sequence (looked up): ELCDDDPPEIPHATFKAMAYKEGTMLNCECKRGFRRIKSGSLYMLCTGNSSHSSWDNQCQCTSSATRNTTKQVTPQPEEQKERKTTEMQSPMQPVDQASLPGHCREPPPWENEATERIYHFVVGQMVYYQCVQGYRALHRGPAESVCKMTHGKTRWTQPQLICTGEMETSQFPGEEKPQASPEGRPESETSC

T3: human IL2Rβ Fc fusion protein (human, UniProt P14784 27-239)
T3 construct: also called Recombinant Fc-tagged human IL2Rβ; not shown: Fc
T3 sequence (looked up): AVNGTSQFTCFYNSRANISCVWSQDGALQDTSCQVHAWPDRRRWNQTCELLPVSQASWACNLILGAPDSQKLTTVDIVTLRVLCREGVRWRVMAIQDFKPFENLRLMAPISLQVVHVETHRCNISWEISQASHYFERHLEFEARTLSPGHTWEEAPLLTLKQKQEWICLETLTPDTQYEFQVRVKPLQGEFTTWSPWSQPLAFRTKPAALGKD

T4: human IL2Rα (human, UniProt P01589 22-213, limits assumed)
T4 construct: also called IL2α; CD25
T4 sequence (looked up): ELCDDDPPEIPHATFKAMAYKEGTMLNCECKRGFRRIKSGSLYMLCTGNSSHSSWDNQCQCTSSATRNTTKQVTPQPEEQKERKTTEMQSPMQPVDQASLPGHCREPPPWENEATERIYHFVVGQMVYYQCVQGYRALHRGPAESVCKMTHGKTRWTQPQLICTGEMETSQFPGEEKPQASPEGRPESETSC


Columns and labels:
[1] = molecular target: T1, human IL2Rβ; assay: SPR, receptor captured on Protein A chip, E. coli-produced IL2
Experimental: The assay was run with Biacore T200 control software version 2.0. For each cycle, 1 μg/mL of human IL2Rβ or IL2Rα was captured for 60 seconds at flow rate of 10 μL/min on flow cell 2 in 1×HBST buffer on Protein A sensor chip. Two-fold serial diluted HIS tag purified engineered IL2 mutant was injected onto both reference flow cell 1 and IL2Rβ or IL2Rα captured flow cell 2 for 150 seconds at flow rate of 30 μL/min followed by washing for 300 seconds. The flow cells were then regenerated with Glycine pH 2 for 40 seconds at a flow rate of 30 μL/mins. Eight concentration points from 0 to 100 nM were assayed for each IL2Rβ agonist clone 96-well plate format. The kinetics data was analyzed with Biacore T200 evaluation software 3000. The specific binding response unit was derived from subtraction of binding to reference flow cell 1 from target flow cell 2.

[2] = molecular target: T2, human IL2Rα Fc fusion protein; assay: ELISA, receptor-Fc coated, anti-Flag HRP
Experimental: (§1) Briefly, 384 well plate was immobilized with human IL2Rα and IL2Rβ Fc fusion proteins at a final concentration of 2 ug/mL in 1×PBS in total volume of 25 uL per well. The plate was incubated overnight at 4 C and blocked with 80 uL of superblock per well for 1 hour. […] Each dilution was added to IL2Rα or IL2Rβ wells in parallel in duplicates. The IL2 mutant binding was detected by adding 25 uL of anti-Flag HRP diluted at 1:5000 in 1×PBST. In between each step, the plate was washed three times with 1×PBST using a plate washer. The plate was then developed with 25 uL of TMB substrate for five minutes and stopped by adding 25 ul of 2N sulfuric acid. The plate was read at OD450 nm Biotek plate reader and the EC50 was analyzed with Prism 8.1 software to generate EC50 values (FIG. 15A for IL2Rα, and FIG. 15B for IL2Rβ, summarized in Table 9).

[3] = molecular target: T3, human IL2Rβ Fc fusion protein; assay: ELISA, receptor-Fc coated, anti-Flag HRP
Experimental: as §1

[4] = molecular target: T4, human IL2Rα; assay: SPR, IL2Rα captured on Protein A chip, IL2 at 100 nM
Experimental: The binding kinetics of IL2Rα-reduced binding clones to IL2Rα was assessed utilizing SPR technology with a Biacore T200, software version 2.0. For each cycle, 1 ug/mL of human IL2Rα was captured for 60 seconds at a flow rate of 10 uL/min on flow cell 2 in 1×HBSP buffer on a Protein A sensor chip. 100 nM of each HIS and Flag tag purified IL2 mutant was injected onto both the reference flow cell 1 and IL2Rα captured flow cell 2 for 150 seconds at a flow rate of 30 uL/min followed by washing for 300 seconds. The flow cells were then regenerated with Glycine pH 2.0 for 60 seconds at a flow rate of 30 uL/min. A HBSP+ buffer was included with each sample as a baseline control. The assay was set up in a 96-well format. The kinetics data was analyzed with Biacore T200 evaluation software 3.0. The specific binding response unit was derived from subtraction of binding to reference flow cell 1 from IL2Rα flow cell 2 and subtraction of buffer control. […] Relative response (RU) was determined for each IL2Rα-reduced binding clone (FIG. 4, Table 3).

[5] = molecular target: T3, human IL2Rβ Fc fusion protein; assay: ELISA, Fc-tagged receptor coated, anti-HisTag-HRP
Experimental: Recombinant Fc-tagged human IL2Rα and IL2Rβ were added in 25 uL of 1×PBS to wells of 384-well plate and incubated overnight at 4° C. to coat the plates. Plates were washed three times with 0.05% Tween20/1×PBS. Plates were blocked with 100 uL of SuperBlock for 1 hr at RT and then washed 3 times with 0.05% Tween20/1×PBS. IL2 mutants were diluted in 0.05% Tween 20/1×PBS from 1000 nM to 0 nM and added to plates for 2 hrs at room temperature. Plates were then washed 6 times with 0.05% Tween20/1×PBS. Anti-HisTag-HRP was diluted 1:5000 in 0.05% Tween20/1×PBS and added to plates for 1 hr at RT. Plates were then washed 6 times with 0.05% Tween 20/1×PBS, and TMB was added to develop blue color. Reactions were stopped with 2N […] and light absorbance at 450 nm was read on a BioTek plate reader.

| EC50 [2] [nM] | EC50 [3] [nM] | RU (at 100 nM) [4] [RU] | Relevant binding to WT IL2 (%) [4] [%] | Binder | other results |
| --- | --- | --- | --- | --- | --- |
| 13.4 | 188 |  |  | EP248 (ligand, not shown: His and Flag tags) APTSSSTKKTQLQLEHLLLDLQMILNGINNYKNPKLTRMLTFKFYMPKKATELKHLQCLEEELKPLEEVLNLAQSKNFHLRARDAIDNIRVIILELKGSETTFMCEYADETATIVEFLNRWITFCQSIISTLT |  |
| 5.6 |  |  |  | EP257 (ligand, not shown: His and Flag tags) APTSSSTKKTQLQLEHLLLDLQMILNGINNYKNPKLTRMLTFKFYMPKKATELKHLQCLEEELKPLEEVLNLAQSKNFHLTARDLIDNIRVIILELKGSETTFMCEYADETATIVEFLNRWITFCQSIISTLT |  |
| 13.2 | 23.4 |  |  | EP250 (ligand, not shown: His and Flag tags) APTSSSTKKTQLQLEHLLLDLQMILNGINNYKNPKLTRMLTFKFYMPKKATELKHLQCLEEELKPLEEVLNLAQSKNFHLTPRDAISNIRVIIQELKGSETTFMCEYADETATIVEFLNRWITFCQSIISTLT |  |
| 20.2 | 576 |  |  | EP249 (ligand, not shown: His and Flag tags) APTSSSTKKTQLQLEHLLLDLQMILNGINNYKNPKLTRMLTFKFYMPKKATELKHLQCLEEELKPLEEVLNLAQSKNFHLTPRDLIDNIRVIIQELKGSETTFMCEYADETATIVEFLNRWITFCQSIISTLT |  |

Second part, the binder before the results:

| Binder | EC50 [2] [nM] | EC50 [3] [nM] | RU (at 100 nM) [4] [RU] | Relevant binding to WT IL2 (%) [4] [%] | other results |
| --- | --- | --- | --- | --- | --- |
| EP007 (ligand, not shown: C-terminal Flag and 6xHis tags) APTSSSTKKTQLQLEHLLLDLQMILNGINNYKNPKLTRMLTFKFYMPKKATELKHLQCLEEELKPLEEVLNLAQSKNFHLKWGDAVSNARVLAGALKGSETTFMCEYADETATIVEFLNRWITFCQSIISTLT |  |  |  |  | Kd [1]: 0.37 nM; koff [1]: 0.000263 s⁻¹; kon [1]: 709000 M⁻¹ s⁻¹; relative activity IL2Rβ (KD: fold) against WT IL2 [1]: 11700 fold |
| EP100 (ligand) APTSSSTKKTQLQLEHLLLDLQMILNGINNYKNPVLTRMLTIKFYMPKKATELKHLQCLEEELKPLEEVLNLAQSKNFHLRPRDLISNINVIVLELKGSETTFMCEYADETATIVEFLNRWITFSQSIISTLT |  |  | 1.7 | 1.19 |  |
| EP350 (ligand, not shown: His and Flag tags) APTSSSTKKTQLQLEHLLLDLQMILNGINNYKNPKLTRMLTAKFYMPKKATELKHLQCLEEELKPLEEVLNLAQSKNFHLTARDAISNINVIIQELKGSETTFMCEYADETATIVEFLNRWITFCQSIISTLT |  |  |  |  | EC50 [5]: 39.9 nM |
| EP246 (ligand, not shown: His and Flag tags) APTSSSTKKTQLQLEHLLLDLQMILNGINNYKNPKLTRMLTFKFYMPKKATELKHLQCLEEELKPLEEVLNLAQSKNFHLRARDAIDNINVIIQELKGSETTFMCEYADETATIVEFLNRWITFCQSIISTLT | 7 | 269 |  |  |  |
| EP102 (ligand, not shown: small tags and cut ends) APTSSSTKKTQLQLEHLLLDLQMILNGINNYKNPDLTSMLAFKFYMPKKATELKHLQCLEEELKPLEEVLNLAQSKNFHLRPRDLISNINVIVLELKGSETTFMCEYADETATIVEFLNRWITFSQSIISTLT |  |  | 2.7 | 1.9 |  |
| EP117 (ligand) APTSSSTKKTQLQLEHLLLDLQMILNGINNYKNPKLTYMLTFKFSMPKKATELKHLQCLEEELKPLEEVLNLAQSKNFHLRPRDLISNINVIVLELKGSETTFMCEYADETATIVEFLNRWITFSQSIISTLT |  |  | 2.5 | 1.76 |  |
| EP120 (ligand) APTSSSTKKTQLQLEHLLLDLQMILNGINNYKNPKLTVMLTFKFTMPKKATELKHLQCLEEELKPLEEVLNLAQSKNFHLRPRDLISNINVIVLELKGSETTFMCEYADETATIVEFLNRWITFSQSIISTLT |  |  | 3.6 | 2.54 |  |
| EP347 (ligand, not shown: His and Flag tags) APTSSSTKKTQLQLEHLLLDLQMILNGINNYKNPKLTVMLTFKFSMPKKATELKHLQCLEEELKPLEEVLNLAQSKNFHLTPRDAIDNIRVIVQELKGSETTFMCEYADETATIVEFLNRWITFCQSIISTLT |  |  |  |  | EC50 [5]: 77.6 nM |
| EP110 (ligand, not shown: His and Flag tags) APTSSSTKKTQLQLEHLLLDLQMILNGINNYKNPLLTDMLTRKFYMPKKATELKHLQCLEEELKPLEEVLNLAQSKNFHLRPRDLISNINVIVLELKGSETTFMCEYADETATIVEFLNRWITFCQSIISTLT |  |  | 2.6 | 1.83 |  |
| EP245 (ligand, not shown: His and Flag tags) APTSSSTKKTQLQLEHLLLDLQMILNGINNYKNPKLTRMLTFKFYMPKKATELKHLQCLEEELKPLEEVLNLAQSKNFHLRARDAISNIRVIIQELKGSETTFMCEYADETATIVEFLNRWITFCQSIISTLT | 4.8 | 123 |  |  |  |
| EP243 (ligand, not shown: His and Flag tags) APTSSSTKKTQLQLEHLLLDLQMILNGINNYKNPKLTRMLTFKFYMPKKATELKHLQCLEEELKPLEEVLNLAQSKNFHLRPRDAIDNIRVIIQELKGSETTFMCEYADETATIVEFLNRWITFCQSIISTLT | 6.7 | 217 |  |  |  |
| EP244 (ligand, not shown: His and Flag tags) APTSSSTKKTQLQLEHLLLDLQMILNGINNYKNPKLTRMLTFKFYMPKKATELKHLQCLEEELKPLEEVLNLAQSKNFHLRARDLIDNIRVIIQELKGSETTFMCEYADETATIVEFLNRWITFCQSIISTLT | 10.2 | 2830 |  |  |  |
| EP101 (ligand) APTSSSTKKTQLQLEHLLLDLQMILNGINNYKNPKLTRMLTLKFPMPKKATELKHLQCLEEELKPLEEVLNLAQSKNFHLRPRDLISNINVIVLELKGSETTFMCEYADETATIVEFLNRWITFSQSIISTLT |  |  | 2.5 | 1.76 |  |
| EP125 (ligand) APTSSSTKKTQLQLEHLLLDLQMILNGINNYKNPKLTNMLTFKFAMPKKATELKHLQCLEEELKPLEEVLNLAQSKNFHLRPRDLISNINVIVLELKGSETTFMCEYADETATIVEFLNRWITFSQSIISTLT |  |  | 6.1 | 4.29 |  |
